Test results: paper doi:10.1101/2022.10.04.510915

How the values were obtained:
[1] = target: JetB (E. coli GF4-3), as subunit of the JetABC complex (E. coli strain GF4-3); assay: cryo-EM structure
[2] = target: JetC (E. coli GF4-3), as subunit of the JetABC complex (E. coli strain GF4-3); assay: cryo-EM structure

Substance	stoichiometry N [1]	stoichiometry N [2]
JetB (E. coli GF4-3), as subunit of the JetABC complex (natural protein)	2	–
JetC (E. coli GF4-3), as subunit of the JetABC complex (natural protein)	–	2
